Positions count from the first letter of the chain named.
Assays:
KLTCRASYCQLF = tested on: T1, KLTCRASYCQLF
T1 sequence: KLTCRASYCQLF

compound 6 = tested on: T2, compound 6
T2 sequence: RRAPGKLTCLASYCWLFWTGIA

[1] = tested on: T3, R-MeArg-APGKLTCLASYCWLFWTGIA
T3 sequence: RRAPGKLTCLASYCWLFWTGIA

[2] = tested on: T4, PRIRTVGPGSRSASGKLTCLASYCWLFFTGIA
T4 sequence: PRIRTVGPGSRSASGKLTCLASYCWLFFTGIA

KLTCQASYCWLF = tested on: T5, KLTCQASYCWLF
T5 sequence: KLTCQASYCWLF

[3] = tested on: T6, RRAPGKLT-Orn-LASY-Asp-WLFWTGIA-COOH
T6 sequence: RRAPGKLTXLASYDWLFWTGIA

[4] = tested on: T7, RRAPGKLTCLASYCWLFWTGI-MeAla
T7 sequence: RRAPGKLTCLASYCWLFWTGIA

compound 25 = tested on: T8, compound 25
T8 sequence: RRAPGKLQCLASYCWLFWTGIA

KRYVYRQMCLVSACWLLQLGYA = tested on: T9, KRYVYRQMCLVSACWLLQLGYA
T9 sequence: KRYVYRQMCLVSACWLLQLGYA

[5] = tested on: T10, HLFGADWLGA RTAPG KLTCLASYCWLFWTGIA
T10 sequence: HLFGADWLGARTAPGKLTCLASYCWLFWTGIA

RRAPGKLTCLASYCWLFWTGiA = tested on: T11, RRAPGKLTCLASYCWLFWTGiA
T11 sequence: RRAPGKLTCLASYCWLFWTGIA

[6] = tested on: T12, RRAPGKLTCLASYCWLF STGVA THANTTATAQ
T12 sequence: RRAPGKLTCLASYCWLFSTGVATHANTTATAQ

KGAYQKLTCLASYCLLFLLTAQ = tested on: T13, KGAYQKLTCLASYCLLFLLTAQ
T13 sequence: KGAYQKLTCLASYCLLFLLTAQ

AQLRRKLTCLASYCWLFGFFSP = tested on: T14, AQLRRKLTCLASYCWLFGFFSP
T14 sequence: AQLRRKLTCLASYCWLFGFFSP

[7] = tested on: T15, SKQGRPISSDrRASGKLTCLASYCWLFWTGIA
T15 sequence: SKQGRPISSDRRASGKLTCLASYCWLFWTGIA

RRAPKKLQCLASYCWLFWTGIA = tested on: T16, RRAPKKLQCLASYCWLFWTGIA
T16 sequence: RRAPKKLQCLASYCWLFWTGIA

Dpr-LTCLASYCWLF = tested on: T17, Dpr-LTCLASYCWLF
T17 sequence: XLTCLASYCWLF

Orn-LTCLASYCWLF = tested on: T18, Orn-LTCLASYCWLF
T18 sequence: XLTCLASYCWLF

KLTCLATYCWLF = tested on: T19, KLTCLATYCWLF
T19 sequence: KLTCLATYCWLF

[8] = tested on: T20, rRAPGKLTCLASYCWLFWTGIA-PEG16-Lys(PEG2-Biotin)-PEG16-Lys(palmitoyl)
T20 sequence: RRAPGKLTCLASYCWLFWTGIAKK

[9] = tested on: T21, PRIRTVGPSSRSASGKLTCLASYCWLFWTGIA
T21 sequence: T4 sequence with G9S, F28W

[10] = tested on: T22, VGSGDERALP SRASG KLTCLASYCWLFWTGIA
T22 sequence: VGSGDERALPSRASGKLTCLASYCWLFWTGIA

[11] = tested on: T23, RRAPGKLTCLK(PEG2-Biotin)SYCWLFWTGIA
T23 sequence: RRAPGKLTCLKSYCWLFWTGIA

[12] = tested on: T24, PRIRTVGPGSRSASGKLTCFASYCWLFWTGIA
T24 sequence: T4 sequence with L20F, F28W

[13] = tested on: T25, AVDSLPLYGA RSAPS KLTCLASYCWLFWTGIA
T25 sequence: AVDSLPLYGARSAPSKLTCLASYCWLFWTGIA

[14] = tested on: T26, TQWAQVGPRG RRAQG KLTCLASYCWLFWTGIA
T26 sequence: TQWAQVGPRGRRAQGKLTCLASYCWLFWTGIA

[15] = tested on: T27, RRAPGKK(PEG2-Biotin)TCLASYCWLFWTGIA
T27 sequence: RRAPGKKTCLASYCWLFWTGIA

KKTCVASFCQMI = tested on: T28, KKTCVASFCQMI
T28 sequence: KKTCVASFCQMI

[16] = tested on: T29, RRAPGKLTCLASYCWLFWTGK(PEG2-Biotin)A
T29 sequence: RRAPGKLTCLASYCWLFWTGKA

[17] = tested on: T30, RRAPGKLTCLASK(PEG2-Biotin)CWLFWTGIA
T30 sequence: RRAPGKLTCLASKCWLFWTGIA

[18] = tested on: T31, C(PEG5K)GGGLVPRGGG-RRAPGKLT-Asp-LASY-Lys-WLFWTGIA
T31 sequence: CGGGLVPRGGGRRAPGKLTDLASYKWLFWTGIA

ALTCLAAYCALF = tested on: T32, ALTCLAAYCALF
T32 sequence: ALTCLAAYCALF

[19] = tested on: T33, RRAPGCLTALASYAWLCWTGIA-CONH2
T33 sequence: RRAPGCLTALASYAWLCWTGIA

VSGTGKLTCLASYCWLFQLGSF = tested on: T34, VSGTGKLTCLASYCWLFQLGSF
T34 sequence: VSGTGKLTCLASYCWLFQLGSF

ERYRLDMTCMASQCWQFPPAAG = tested on: T35, ERYRLDMTCMASQCWQFPPAAG
T35 sequence: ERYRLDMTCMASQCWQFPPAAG

RGRSAKLRCLASYCWLFFGVIL = tested on: T36, RGRSAKLRCLASYCWLFFGVIL
T36 sequence: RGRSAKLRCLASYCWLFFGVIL

[20] = tested on: T37, RRFVGGSLSQ RRAPG KLTCLASYCWLFWTGIA
T37 sequence: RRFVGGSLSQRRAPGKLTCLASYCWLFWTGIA

[21] = tested on: T38, PRSRTVGPGSRSASGKSTCLASYCWLFWTGIA
T38 sequence: T4 sequence with I3S, L17S, F28W

RGRSAKLRCLASYCWLFFTVIL = tested on: T39, RGRSAKLRCLASYCWLFFTVIL
T39 sequence: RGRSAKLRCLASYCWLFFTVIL

[22] = tested on: T40, RRAPGKLTCLASYCWLF QTGWA YWGYRQHPGS
T40 sequence: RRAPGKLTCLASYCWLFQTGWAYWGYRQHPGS

RRAPGKLQCLASYCWLFWTGI = tested on: T41, RRAPGKLQCLASYCWLFWTGI
T41 sequence: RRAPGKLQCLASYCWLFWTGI

[23] = tested on: T42, GYRVPVGGLV RRAHG KLTCLASYCWLFWTGIA
T42 sequence: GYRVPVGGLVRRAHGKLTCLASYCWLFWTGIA

LRQRLAKTCVASYCWLFSLVAS = tested on: T43, LRQRLAKTCVASYCWLFSLVAS
T43 sequence: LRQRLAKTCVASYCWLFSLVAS

[24] = tested on: T44, SKQGRPISPDrRAAGKLTCLAS-NMeTyr-CWLFWTGIA
T44 sequence: T15 sequence with S9P, S14A

HYARVQLRCLDGYCWLLTKSRM = tested on: T45, HYARVQLRCLDGYCWLLTKSRM
T45 sequence: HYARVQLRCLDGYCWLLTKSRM

KLTCLASYCWLF-COOH = tested on: T46, KLTCLASYCWLF-COOH
T46 sequence: KLTCLASYCWLF

RLTCLASYCWLF = tested on: T47, RLTCLASYCWLF
T47 sequence: RLTCLASYCWLF

[25] = tested on: T48, PRIRSVGPGSRSASGKLTCLASYCWLFWTGIA
T48 sequence: T4 sequence with T5S, F28W

human Factor IXa
Vmax, FXa generation assay (KLTCRASYCQLF): > 2 | Vmax, FXa generation assay with hFIXa (compound 6): > 2 | Vmax, FXa generation assay; (++) means 1-2 [1]: (++) | Vmax, FXa generation assay [2]: > 3 | Vmax, FXa generation assay; (++) means 1-2 (KLTCQASYCWLF): (++) | Vmax, FXa generation assay [3]: > 2 | Vmax, FXa generation assay; (++) means 1-2 [4]: (++) | Vmax, FXa generation assay with hFIXa (compound 25): > 2 | Vmax, FXa generation assay; (++) means 1-2 (KRYVYRQMCLVSACWLLQLGYA): (++) | Vmax, FXa generation assay; (++) means 1-2 [5]: (++) | Vmax, FXa generation assay; (++) means 1-2 (RRAPGKLTCLASYCWLFWTGiA): (++) | Vmax, FXa generation assay [6]: > 3 | Vmax, FXa generation assay; (++) means 1-2 (KGAYQKLTCLASYCLLFLLTAQ): (++) | Vmax, FXa generation assay; (++) means 1-2 (AQLRRKLTCLASYCWLFGFFSP): (++) | Vmax, FXa generation assay [7]: > 3 | Vmax, FXa generation assay; (++) means 1-2 (RRAPKKLQCLASYCWLFWTGIA): (++) | Vmax, FXa generation assay (Dpr-LTCLASYCWLF): > 2 | Vmax, FXa generation assay; (++) means 1-2 (Orn-LTCLASYCWLF): (++) | Vmax, FXa generation assay; (++) means 1-2 (KLTCLATYCWLF): (++) | Vmax, FXa generation assay [8]: > 3 | Vmax, FXa generation assay [9]: > 3 | Vmax, FXa generation assay [10]: > 2 | Vmax, FXa generation assay; (++) means 1-2 [11]: (++) | Vmax, FXa generation assay [12]: > 2 | Vmax, FXa generation assay; (++) means 1-2 [13]: (++) | Vmax, FXa generation assay [14]: > 3 | Vmax, FXa generation assay [15]: > 2 | Vmax, FXa generation assay (KKTCVASFCQMI): > 4 | Vmax, FXa generation assay; (++) means 1-2 [16]: (++) | Vmax, FXa generation assay; (++) means 1-2 [17]: (++) | Vmax, FXa generation assay; (++) means 1-2 [18]: (++) | Vmax, FXa generation assay; (++) means 1-2 (ALTCLAAYCALF): (++) | Vmax, FXa generation assay; (++) means 1-2 [19]: (++) | Vmax, FXa generation assay; (++) means 1-2 (VSGTGKLTCLASYCWLFQLGSF): (++) | Vmax, FXa generation assay; (++) means 1-2 (ERYRLDMTCMASQCWQFPPAAG): (++) | Vmax, FXa generation assay (RGRSAKLRCLASYCWLFFGVIL): > 2 | Vmax, FXa generation assay [20]: > 3 | Vmax, FXa generation assay [21]: > 3 | Vmax, FXa generation assay (RGRSAKLRCLASYCWLFFTVIL): > 2 | Vmax, FXa generation assay [22]: > 2 | Vmax, FXa generation assay (RRAPGKLQCLASYCWLFWTGI): > 2 | Vmax, FXa generation assay [23]: > 2 | Vmax, FXa generation assay (LRQRLAKTCVASYCWLFSLVAS): > 1.5 | Vmax, FXa generation assay [24]: > 0.3 | Vmax, FXa generation assay (HYARVQLRCLDGYCWLLTKSRM): > 2.5 | Vmax, FXa generation assay; (++) means 1-2 (KLTCLASYCWLF-COOH): (++) | Vmax, FXa generation assay (RLTCLASYCWLF): > 2 | Vmax, FXa generation assay [25]: > 3
